Source: US20200338203A1 (Bicycle, published 2020)
Numbered stars: 1 amine (or outer) side, 2 acyl side, 3 side chain; on linkers, the order of the positions; unused ones are H or OH. Bridge positions count the residues as written; N and C are the ends. Square brackets hold non-standard residues; d marks the D form. Ends that are not written are not given here. TBMB = c1c(C[*:1])cc(C[*:3])cc1C[*:2]; Sar = CNCC(=O)O

Target: T1, Human EphA2 (Human, UniProt P29317 24-537)
T1 construct: extracellular domain; also called EphA2 (Ecto), Human
Test: FP competition; competitor: fluorescent Compound 66
Description: (§1) Peptides without a fluorescent tag were tested in competition with a peptide with a fluorescent tag and a known Kd (Table 2). Peptides were diluted to an appropriate concentration in assay buffer as described in the direct binding assay with a maximum of 5% DMSO, then serially diluted 1 in 2. Five μL of diluted peptide was added to the plate followed by 10 μL of human or mouse EphA2 (Table 1) at a fixed concentration which was dependent on the fluorescent peptide used (Table 2), then 10 μL fluorescent peptide added. Measurements were conducted as for the direct binding assay, however the gain was determined prior to the first measurement.

T1 sequence (P29317 24-537): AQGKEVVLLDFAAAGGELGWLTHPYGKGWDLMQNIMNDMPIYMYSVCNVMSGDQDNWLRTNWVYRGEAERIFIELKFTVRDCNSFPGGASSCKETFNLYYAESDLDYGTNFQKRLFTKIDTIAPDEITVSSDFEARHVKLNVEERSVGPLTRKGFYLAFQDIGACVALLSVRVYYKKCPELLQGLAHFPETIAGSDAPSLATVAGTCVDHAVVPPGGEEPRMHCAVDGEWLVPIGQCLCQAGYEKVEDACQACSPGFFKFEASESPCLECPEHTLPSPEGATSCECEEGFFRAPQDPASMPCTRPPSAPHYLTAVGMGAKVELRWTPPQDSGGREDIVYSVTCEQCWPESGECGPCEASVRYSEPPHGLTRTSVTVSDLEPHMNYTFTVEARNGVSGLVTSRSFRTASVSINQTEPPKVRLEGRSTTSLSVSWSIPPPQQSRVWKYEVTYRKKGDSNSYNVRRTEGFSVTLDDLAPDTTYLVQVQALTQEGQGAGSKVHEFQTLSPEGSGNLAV

Binder	Ki [nM]
[Sar][Sar]ACPWG[dA]FWCPVNRPGC (linker 4-11-18 via TBMB, bicyclic peptide) [Compound 297]	1500
[Sar][Sar]ACPWGPFWCPVNR[dA]GC (linker 4-11-18 via TBMB, bicyclic peptide) [Compound 105]	471
[Sar][Sar]ACPWGPFWCPVN[dA]PGC (linker 4-11-18 via TBMB, bicyclic peptide) [Compound 302]	1410
[Sar][Sar]ACPW[dA]PFWCPVNRPGC (linker 4-11-18 via TBMB, bicyclic peptide) [Compound 296]	1000
[Sar][Sar]ACPWGPFWCPVNRP[dA]C (linker 4-11-18 via TBMB, bicyclic peptide) [Compound 112]	110
[Sar][Sar]ACPWGPAWCPVNRPGC (linker 4-11-18 via TBMB, bicyclic peptide) [Compound 83]	288
ACPWGPFWCPVARPGC (N-terminal Sar2 before the entry; three Cys cyclised on TBMB, bicyclic peptide) [Compound 101]	265
[Sar][Sar]ACPWGAFWCPVNRPGC (linker 4-11-18 via TBMB, bicyclic peptide) [Compound 289]	1100
[Sar][Sar]ACAWGPFWCPVNRPGC (linker 4-11-18 via TBMB, bicyclic peptide) [Compound 286]	886
[Sar][Sar]ACPWGPFWCPANRPGC (linker 4-11-18 via TBMB, bicyclic peptide) [Compound 292]	954
[Sar][Sar]ACPWGPFWCPVNRPAC (linker 4-11-18 via TBMB, bicyclic peptide) [Compound 111]	238
[Sar][Sar]ACPWGPFWCPVNRAGC (linker 4-11-18 via TBMB, bicyclic peptide) [Compound 104]	194
[Sar][Sar]ACPWGPFWCPVNAPGC (linker 4-11-18 via TBMB, bicyclic peptide) [Compound 293]	711

Target: T1, Human EphA2
Test: FP competition; competitor: fluorescent Compound 18
Description: as §1

Binder	Ki [nM]
[Sar][Sar]ACPWGPFWCPVNR[dA]GC (linker 4-11-18 via TBMB, bicyclic peptide) [Compound 105]	677
[Sar][Sar]ACPWGPFWCPVN[dA]PGC (linker 4-11-18 via TBMB, bicyclic peptide) [Compound 302]	> 1000
ADVHCPWAPFWCPVNRPGCA (linker 5-12-19 via TBMB, bicyclic peptide) [Compound 151]	394
ADVHCPWGAFWCPVNRPGCA (linker 5-12-19 via TBMB, bicyclic peptide) [Compound 152]	1.8
[Sar][Sar]ACPWGPFWCPVNRP[dA]C (linker 4-11-18 via TBMB, bicyclic peptide) [Compound 112]	89
[Sar][Sar]ACPWGPAWCPVNRPGC (linker 4-11-18 via TBMB, bicyclic peptide) [Compound 83]	199
ACPWGPFWCPVARPGC (N-terminal Sar2 before the entry; three Cys cyclised on TBMB, bicyclic peptide) [Compound 101]	293
[Sar][Sar]ACPWGAFWCPVNRPGC (linker 4-11-18 via TBMB, bicyclic peptide) [Compound 289]	> 1000
[Sar][Sar]ACPWGPFWCPVNRPAC (linker 4-11-18 via TBMB, bicyclic peptide) [Compound 111]	108
[Sar][Sar]ACPWGPFWCPVNRAGC (linker 4-11-18 via TBMB, bicyclic peptide) [Compound 104]	124
